From article PMC6355916, “MITF has a central role in regulating starvation-induced autophagy in melanoma”

Target: MITF (UniProt Q08874 287-403)
Assay: fluorescence anisotropy; FA: 0.5 nM dsDNA, 10 mM Tris/HCl pH 7.5, 300 mM NaCl, 0.01% Triton X-100, 0.1 mg/mL BSA, 25 °C, 5 min; fit one MITF dimer per dsDNA. Crystals: 0.9 M sodium malonate pH 5.5
Details: protein: recombinant; chain copies: 2; label: 3' fluorescein on strand 1; blunt

MITF, sequence (Q08874 287-403): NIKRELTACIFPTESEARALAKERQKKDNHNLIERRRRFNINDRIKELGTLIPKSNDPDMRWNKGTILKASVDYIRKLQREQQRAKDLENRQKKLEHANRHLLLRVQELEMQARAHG

Row | Binder | Kd [nM]
1 | M-box (dsDNA) DNA 1: GAGATCATGTGTTGAC DNA 2: GTCAACACATGATCTC | 2.6 ± 0.4
2 | E-box (dsDNA) DNA 1: GAGACCACGTGTTGAC DNA 2: GTCAACACGTGGTCTC | 1.5 ± 0.3
3 | CLEAR-box (FA) (dsDNA) DNA 1: GAGATCACGTGATGAC DNA 2: GTCATCACGTGATCTC | 0.9 ± 0.3
